B1: FAM50A (parent)
chain: KKREKQREQMEQMKQRIAEENIMK

Variants of: B1
Experiment: protein stability index of a GFP-peptide fusion (GPS, HEK-293T) (PSI 1-6); higher = more stable
Conditions: c terminus: a fixed tail appended
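Also: lentivirally expressed fusions sorted by FACS into six bins by GFP to DsRed ratio, PSI derived from sequencing read proportions per bin multiplied by bin number.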

In order of falling protein stability index:
1. PKREKQREQMEQMKQRIAEENIMK  5.52
2. KKQEKQREQMEQMKQRIAEENIMK  5.48
3. NKREKQREQMEQMKQRIAEENIMK  5.42
4. KKREPQREQMEQMKQRIAEENIMK  5.34
5. KKEEKQREQMEQMKQRIAEENIMK  5.29
6. KKREEQREQMEQMKQRIAEENIMK  5.26
7. KKPEKQREQMEQMKQRIAEENIMK  5.26
8. KKRENQREQMEQMKQRIAEENIMK  5.25
9. KPREKQREQMEQMKQRIAEENIMK  5.22
10. KKRDKQREQMEQMKQRIAEENIMK  5.21
11. KKVEKQREQMEQMKQRIAEENIMK  5.21
12. KKTEKQREQMEQMKQRIAEENIMK  5.2
13. KKGEKQREQMEQMKQRIAEENIMK  5.18
14. KKAEKQREQMEQMKQRIAEENIMK  5.17
15. KKRETQREQMEQMKQRIAEENIMK  5.16
16. KKIEKQREQMEQMKQRIAEENIMK  5.16
17. QKREKQREQMEQMKQRIAEENIMK  5.15
18. SKREKQREQMEQMKQRIAEENIMK  5.14
19. KKREHQREQMEQMKQRIAEENIMK  5.12
20. KKDEKQREQMEQMKQRIAEENIMK  5.11
21. KKNEKQREQMEQMKQRIAEENIMK  5.08
22. KTREKQREQMEQMKQRIAEENIMK  5.07
23. TKREKQREQMEQMKQRIAEENIMK  5.07
24. KKKEKQREQMEQMKQRIAEENIMK  5.06
25. KKREKDREQMEQMKQRIAEENIMK  5.06
26. KKRECQREQMEQMKQRIAEENIMK  5.05
27. KKRAKQREQMEQMKQRIAEENIMK  5.04
28. KEREKQREQMEQMKQRIAEENIMK  5.04
29. KKMEKQREQMEQMKQRIAEENIMK  5.04
30. KRREKQREQMEQMKQRIAEENIMK  5.03
31. KSREKQREQMEQMKQRIAEENIMK  5.01
32. KHREKQREQMEQMKQRIAEENIMK  4.98
33. IKREKQREQMEQMKQRIAEENIMK  4.98
34. KKREVQREQMEQMKQRIAEENIMK  4.96
35. KKREMQREQMEQMKQRIAEENIMK  4.95
36. YKREKQREQMEQMKQRIAEENIMK  4.95
37. HKREKQREQMEQMKQRIAEENIMK  4.95
38. KNREKQREQMEQMKQRIAEENIMK  4.94
39. KKLEKQREQMEQMKQRIAEENIMK  4.93
40. KKRESQREQMEQMKQRIAEENIMK  4.92
41. KKCEKQREQMEQMKQRIAEENIMK  4.91
42. GKREKQREQMEQMKQRIAEENIMK  4.9
43. KKREKEREQMEQMKQRIAEENIMK  4.81
44. KKREFQREQMEQMKQRIAEENIMK  4.8
45. KKRQKQREQMEQMKQRIAEENIMK  4.79
46. KKSEKQREQMEQMKQRIAEENIMK  4.78
47. KKREIQREQMEQMKQRIAEENIMK  4.76
48. KCREKQREQMEQMKQRIAEENIMK  4.76
49. KKREDQREQMEQMKQRIAEENIMK  4.75
50. KQREKQREQMEQMKQRIAEENIMK  4.75
51. KKRGKQREQMEQMKQRIAEENIMK  4.71
52. VKREKQREQMEQMKQRIAEENIMK  4.71
53. KKRELQREQMEQMKQRIAEENIMK  4.68
54. MKREKQREQMEQMKQRIAEENIMK  4.67
55. KKHEKQREQMEQMKQRIAEENIMK  4.65
56. KMREKQREQMEQMKQRIAEENIMK  4.64
57. KIREKQREQMEQMKQRIAEENIMK  4.63
58. KKRERQREQMEQMKQRIAEENIMK  4.62
59. LKREKQREQMEQMKQRIAEENIMK  4.62
60. KKFEKQREQMEQMKQRIAEENIMK  4.61
61. KWREKQREQMEQMKQRIAEENIMK  4.58
62. KAREKQREQMEQMKQRIAEENIMK  4.57
63. KKREGQREQMEQMKQRIAEENIMK  4.55
64. KGREKQREQMEQMKQRIAEENIMK  4.55
65. KKRIKQREQMEQMKQRIAEENIMK  4.53
66. KVREKQREQMEQMKQRIAEENIMK  4.52
67. KKRMKQREQMEQMKQRIAEENIMK  4.5
68. KKRVKQREQMEQMKQRIAEENIMK  4.49
69. RKREKQREQMEQMKQRIAEENIMK  4.48
70. KKREKAREQMEQMKQRIAEENIMK  4.48
71. KKRSKQREQMEQMKQRIAEENIMK  4.47
72. KKREWQREQMEQMKQRIAEENIMK  4.46
73. WKREKQREQMEQMKQRIAEENIMK  4.46
74. KFREKQREQMEQMKQRIAEENIMK  4.45
75. KKRPKQREQMEQMKQRIAEENIMK  4.42
76. KKRCKQREQMEQMKQRIAEENIMK  4.42
77. KKRFKQREQMEQMKQRIAEENIMK  4.39
78. KKREQQREQMEQMKQRIAEENIMK  4.39
79. KKRHKQREQMEQMKQRIAEENIMK  4.38
80. KKREAQREQMEQMKQRIAEENIMK  4.38
81. KKRNKQREQMEQMKQRIAEENIMK  4.37
82. KDREKQREQMEQMKQRIAEENIMK  4.34
83. KKRRKQREQMEQMKQRIAEENIMK  4.32
84. KKRKKQREQMEQMKQRIAEENIMK  4.28
85. KKRYKQREQMEQMKQRIAEENIMK  4.27
86. KKWEKQREQMEQMKQRIAEENIMK  4.25
87. KYREKQREQMEQMKQRIAEENIMK  4.22
88. KKRLKQREQMEQMKQRIAEENIMK  4.21
89. KKREKCREQMEQMKQRIAEENIMK  4.17
90. KKREYQREQMEQMKQRIAEENIMK  4.11
91. KKRTKQREQMEQMKQRIAEENIMK  4.09
92. KKYEKQREQMEQMKQRIAEENIMK  4.04
93. KKRWKQREQMEQMKQRIAEENIMK  3.96
94. KLREKQREQMEQMKQRIAEENIMK  3.67

— the supplement of paper PMC10567573
